According to PMC5221731:

Biological target: N-terminally hexahistidine-tagged wildtype Chinese hamster BiP, unmodified (non-AMPylated) (Chinese hamster) (UniProt G3I8R9)
Assay: native gel or EMSA

stoichiometry N: 2
Substance: N-terminally hexahistidine-tagged wildtype Chinese hamster BiP, unmodified (non-AMPylated) (from UniProt G3I8R9 19-654) (natural protein)
